The source of these data is patent US20080292620A1 (Novartis, published 2008).

A word on the Kd: it is the concentration at which binding is half-saturated. What is called koff is the first-order rate constant of dissociation. As a reminder, the kon is the rate constant with which the complex forms.

In test [1] the target is T1, recombinant extracellular domain (ECD) of the human prolactin receptor (PRLR) (human, UniProt P16471 25-234).
T1 construct: also called PRLR ECD; Human PRLR; not shown: His tag
T1 sequence: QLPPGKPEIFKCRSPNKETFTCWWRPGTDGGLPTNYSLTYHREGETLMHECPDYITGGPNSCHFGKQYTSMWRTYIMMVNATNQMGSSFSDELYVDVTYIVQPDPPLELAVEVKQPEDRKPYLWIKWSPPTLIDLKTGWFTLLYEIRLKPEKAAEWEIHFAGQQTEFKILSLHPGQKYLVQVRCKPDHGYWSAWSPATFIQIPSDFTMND
The test is described as follows: Biacore 2000 SPR, antibody captured on Protein A/G, PRLR ECD titrated, 1:1 Langmuir, 25 C.

Test [2] has as its target T1, recombinant extracellular domain (ECD) …. The test is described as follows: Biacore 2000 SPR, antibody captured, PRLR ECD injected. In general terms: Surface plasmon resonance follows binding to a sensor surface in real time, without labels.
Test [3] shares this target. The experiment in a line: Biacore SPR, antibody captured on Protein A/G, kinetic titration of PRLR ECD, 1:1 Langmuir. The protocol:
(§1) Affinity of the chimerized and Human Engineered™ antibodies determined by Biacore analysis. Briefly, a CM5 sensor chip (Biacore) immobilized with Protein A/G (Pierce) via NHS/EDC was used to capture approximately 600 RU of antibody on the chip surface. Five concentrations of PRLR ECD beginning at 5 ug/mL (185 nM) and serially diluted at 5× dilution to 0.3 nM were injected from lowest to highest concentration in the kinetic titration injection mode, and 15 minutes of dissociation data was collected. The experiments were double-referenced, i.e. an adjacent flow cell response was subtracted automatically, and the response from a buffer injection experiment was subtracted from the experimental data set. Kinetic and derived parameters (kₐ, kd and KD) were determined by fitting to a 1:1 Langmuir model using BiaEval software customized to the kinetic titration injection mode. Affinity measurements of both chimeric and all Human Engineered™ antibodies against human and cynomolgus PRLR ECD are summarized in Table 9 and Table 10.

Test [4] has as its target T2, cynomolgus PRLR ECD (cynomolgus, UniProt A0A2K5WXK1 25-234).
T2 construct: extracellular domain; also called Cyno PRLR
T2 sequence: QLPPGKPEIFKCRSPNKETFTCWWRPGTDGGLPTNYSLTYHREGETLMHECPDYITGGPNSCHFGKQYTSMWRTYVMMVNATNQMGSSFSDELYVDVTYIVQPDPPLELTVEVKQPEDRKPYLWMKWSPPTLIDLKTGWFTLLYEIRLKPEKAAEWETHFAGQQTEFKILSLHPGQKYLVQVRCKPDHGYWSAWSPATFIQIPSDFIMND
Described as above. The method, then:
as §1

The target in test [5] is T3, rat PRLR ECD (rat, UniProt P05710 20-229).
T3 construct: extracellular domain
T3 sequence (looked up): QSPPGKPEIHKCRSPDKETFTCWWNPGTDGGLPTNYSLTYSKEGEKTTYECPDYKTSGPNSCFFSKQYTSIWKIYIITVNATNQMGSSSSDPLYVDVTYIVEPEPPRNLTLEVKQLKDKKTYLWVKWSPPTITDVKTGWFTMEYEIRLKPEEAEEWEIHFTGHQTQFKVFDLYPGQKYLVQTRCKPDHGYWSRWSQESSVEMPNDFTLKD
The test is described as follows: Biacore SPR, antibody covalently immobilized on CM4 chip, PRLR ECD 111 to 1.37 nM.

In test [6] the target is T1, recombinant extracellular domain (ECD) …. The test is described as above.
Test [7] concerns the target T2, cynomolgus PRLR ECD. The test is described as above.
In test [8] the target is T4, murine PRLR ECD (mouse, UniProt Q08501 20-229).
T4 construct: extracellular domain; also called Mouse PRLR
T4 sequence (looked up): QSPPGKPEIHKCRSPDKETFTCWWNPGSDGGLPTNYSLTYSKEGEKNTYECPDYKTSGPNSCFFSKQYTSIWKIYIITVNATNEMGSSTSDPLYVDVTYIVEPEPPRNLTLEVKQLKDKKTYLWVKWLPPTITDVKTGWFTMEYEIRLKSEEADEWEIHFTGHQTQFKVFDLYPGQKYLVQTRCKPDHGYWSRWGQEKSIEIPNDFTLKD
Described as above.

B1: XPA.06.131 (Fc fusion)
chain 1: EVQLLESGGGLVQPGGSLRLSCAASGFTFNSYPVHWVRQAPGKGLEWVAVISYDGNTKYYADSVKGRFTISRDNSKNTLYLQMNSLRAEDTAVYYCARDNPPFDYWGQGTLATV
chain 2: QSVLTQPPSASGTPGQRVTISCSGSSSNIGNNYVSWYQQLPGTAPKLLIYDNNNRPSGVPDRFSGSKSGTSASLAISGLRSEDEADYYCEAWDDTLNGPHVVFGGGTKLTVL
On to B1, for which, in test [1], the Kd is 2.1 nM, the koff stood at 7.3e-05 s⁻¹ and the on-rate (kon) was 34000 M⁻¹ s⁻¹.

B2: XPA.06.167 (Fc fusion)
chain 1: EVQLLESGGGLVQPGGSLRLSCAASGFTFGSYGMHWVRQAPGKGLEWVSLISWDGGSTYYADSVKGRFTISRDNSKNTLYLQMNSLRAEDTAVYYCASSISAAATGLDYWGQGTLVTV
chain 2: not shown
B2: the dissociation constant (Kd) in test [2] is 4 nM.

B3: he.06.642-1 (antibody, V domains shown)
VH: EVQLVESGGGLVQPGGSLRLSCAVSGFTFSSYGMSWVRQAPGKRLEWVATVSSGGTYTYYPDSVKGRFTISRDNSKNTLYLQMNSLRAEDTAMYYCARHRGNYYATYYYAMDYWGQGTLVTVSS
VL: DIVLTQSPDSLAVSLGERATINCKASKSVSTSGYTYMHWYQQKPGQPPKLLIYLASNRESGVPDRFSGSGSGTDFTLTISPVQAEDVATYYCQHSGELPPSFGQGTKLEIK
notes: Human Engineered
With B3, the figures for the dissociation constant (Kd) in test [3] and in test [4] were 2 nM and 31 nM, respectively.

B4: he.06.642-2 (antibody, V domains shown)
VH: EVQLVESGGGLVQPGGSLRLSCAVSGFTFSSYGMSWVRQAPGKGLEWVATVSSGGTYTYYPDSVKGRFTISRDNSKNTLYLQMNSLRAEDTAVYYCARHRGNYYATYYYAMDYWGQGTLVTVSS
VL: DIVLTQSPDSLAVSLGERATINCKASKSVSTSGYTYMHWYQQKPGQPPKLLIYLASNRESGVPDRFSGSGSGTDFTLTISPVQAEDVATYYCQHSGELPPSFGQGTKLEIK
notes: Human Engineered
In the case of B4, the dissociation constant (Kd) was determined as 3.1 nM in test [3]; 47 nM in test [4]; 1.9 nM in test [5]; 2.6 nM in test [6]; 38.9 nM in test [7]; 2.7 nM in test [8].

B5: XPA.06.147 (Fc fusion)
chain 1: EVQLLESGGGLVQPGGSLRLSCAASGFTFSSYGMHWVRQAPGKGLEWVSAIGGRGVSTYYADSVKGRFTISRDNSKNTLYLQMNSLRAEDTAVYYCARGSNWTHALGFDPWGQGTLVTV
chain 2: not shown
Regarding B5, in test [1], the equilibrium dissociation constant (Kd) came to 9.8 nM, the off-rate constant (koff) turned out to be 0.0053 s⁻¹ and the kon turned out to be 550000 M⁻¹ s⁻¹.

B6: XPA.06.178 (Fc fusion)
chain 1: EVQLLESGGGLVQPGGSLRLSCAASGFTFDDYGMSWVRQVPGKGLEWVSLISWDGGSTYYADSVKGRFTISRDNSKNTLYLQMNSLRAEDTAVYYCARPSGAYPTPFDNWGQGTLVTV
chain 2: not shown
For B6, the Kd in test [2] turned out to be 20 nM.

B7: he.06.275-1 (antibody, V domains shown)
VH: DVQLQESGPGLVKPSQTLSLTCTVTGYSITSDYAWNWIRQFPGKKLEWMGYISYSGSTSYNPSLKSRITISRDTSKNQFSLQLNSVTAADTATYFCARDYGYVFDYWGQGTTLTVSS
VL: DVQITQSPSSLSASPGDRITLTCRASKNIYKYLAWYQEKPGKTNNLLIYSGSTLHSGIPSRFSGSGSGTDFTLTISSLQPEDFAMYYCQQHNDYPYTFGQGTKLEIK
notes: Human Engineered
As for B7, the equilibrium dissociation constant (Kd) stood at 0.5 nM in test [3] and 1.6 nM in test [4].

B8: he.06.275-3 (antibody, V domains shown)
VH: DVQLQESGPGLVKPSQTLSLTCTVTGYSITSDYAWNWIRQFPGKKLEWMGYISYSGSTSYNPSLKSRITISRDTSKNQFSLQLNSVTAADTATYFCARDYGYVFDYWGQGTTLTVSS
VL: DVQITQSPSSLSASPGDRITLTCRASKNIYKYLAWYQEKPGKANKLLIYSGSTLHSGIPSRFSGSGSGTDFTLTISSLQPEDFAMYYCQQHNDYPYTFGQGTKLEIK
notes: Human Engineered
In the case of B8, the dissociation constant (Kd) is 0.43 nM in test [3] and 1.3 nM in test [4].

B9: he.06.275-2 (antibody, V domains shown)
VH: QVQLQESGPGLVKPSQTLSLTCTVSGYSITSDYAWNWIRQFPGKGLEWMGYISYSGSTSYNPSLKSRITISRDTSKNQFSLQLNSVTAADTAVYFCARDYGYVFDYWGQGTTLTVSS
VL: DVQITQSPSSLSASPGDRITLTCRASKNIYKYLAWYQEKPGKTNNLLIYSGSTLHSGIPSRFSGSGSGTDFTLTISSLQPEDFAMYYCQQHNDYPYTFGQGTKLEIK
notes: Human Engineered
With B9, the Kd in test [3] is 0.61 nM; in test [4], 1.9 nM.

B10: XPA.06.141 (Fc fusion)
chain 1: EVQLLESGGGLVQPGGSLRLSCAASGFTFSNSGMHWVRQAPGKGLEWVAAISYDGSNKYYADSVKGRFTISRDNSKNTLYLQMNSLRAEDTAVYYCARADSSGTVDYWGQGTLVTV
chain 2: not shown
On to B10, for which, in test [1], the dissociation constant (Kd) was 8.4 nM, the koff is 0.00053 s⁻¹ and the kon was 63000 M⁻¹ s⁻¹.

B11: XPA.06.217 (Fc fusion)
chain 1: EVQLLESGGGLVQPGGSLRLSCAASGFTFSSYAMHWVRQAPGKGLEWVSSISSSSSSIYYADSVKGRFTISRDNSKNTLYLQMNSLRAEDTAVYYCARGGGQQLGAFDIWGQGTLVTV
chain 2: not shown
On to B11, for which, in test [2], the Kd amounted to 7 nM.

B12: XPA.06.145 (Fc fusion)
chain 1: EVQLLESGGGLVQPGGSLRLSCAASGFTFSNYGMHWVRQAPGKGLEWVSLISWDGGRTSYTDSVKGRFTISRDNSKNTLYLQMNSLRAEDTAVYYCARGLIGDNWGQGTLVTVSS
chain 2: QSVLTQPPSASGTPGQRVTISCTGSSSNIGAGYDVHWYQQLPGTAPKLLIYDNNKRPSGVPDRFSGSKSGTSASLAISGLRSEDEADYYCAAWDDSLNGWVFGGGTKLTVL
Take B12: the Kd in test [2] was 10 nM.

B13: XPA.06.158 (Fc fusion)
chain 1: EVQLLESGGGLVQPGGSLRLSCAASGFTFSSYGMHWVRQAPGKGLEWVSLISWDGYRTHYADSVKGRFTISRDNSKNTLYLQMNSLRAEDTAMYYCTTGASYHALWGQGTLVTV
chain 2: QSVLTQPPSASGTPGQRVTISCSGSRSNIGNNYVSWYQQLPGTAPKLLIYDDIKRPSGVPDRFSGSKSGTSASLAISGLRSEDEADYYCATWDDSLNGPVFGGGTKLTVL
On to B13, for which the Kd in test [2] is 0.7 nM. In addition, in test [1], the Kd is 0.7 nM, the koff stood at 7.3e-05 s⁻¹ and the on-rate (kon) was determined as 110000 M⁻¹ s⁻¹.
